From US20260085127A1

What was measured:
[1] = target: T1, human CD39 (Accession No. NM_001776.6) expressed on cells (human) (UniProt P49961); experiment: flow cytometry, Jurkat/TIM-3 + CD39 cells, KD from MFI
T1 sequence (looked up): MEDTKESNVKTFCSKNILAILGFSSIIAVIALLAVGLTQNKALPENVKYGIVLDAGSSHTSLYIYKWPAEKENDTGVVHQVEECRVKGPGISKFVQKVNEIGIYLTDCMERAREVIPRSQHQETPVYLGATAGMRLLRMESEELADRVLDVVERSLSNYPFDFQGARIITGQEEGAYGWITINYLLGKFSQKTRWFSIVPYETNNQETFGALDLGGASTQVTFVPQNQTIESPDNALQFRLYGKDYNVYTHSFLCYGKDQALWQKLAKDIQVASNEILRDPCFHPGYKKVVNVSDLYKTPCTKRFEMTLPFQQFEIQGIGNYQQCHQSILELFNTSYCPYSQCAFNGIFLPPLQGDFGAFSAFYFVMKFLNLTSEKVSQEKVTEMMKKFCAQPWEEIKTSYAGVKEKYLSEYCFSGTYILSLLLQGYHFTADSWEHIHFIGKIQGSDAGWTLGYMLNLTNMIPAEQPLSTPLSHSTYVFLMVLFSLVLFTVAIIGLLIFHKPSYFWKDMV

[2] = target: T1, human CD39 (Accession No. NM_001776.6) expressed on cells (human); experiment: flow cytometry, Jurkat/CD39 cells, KD from MFI
[3] = target: T2, recombinant human CD39 (in-house product, 38 to 478 aa of Accession No. NM_001776.6) (human) (UniProt P49961); experiment: SPR Biacore8K, antibody captured on anti-human IgG, antigen as analyte
T2 sequence (looked up): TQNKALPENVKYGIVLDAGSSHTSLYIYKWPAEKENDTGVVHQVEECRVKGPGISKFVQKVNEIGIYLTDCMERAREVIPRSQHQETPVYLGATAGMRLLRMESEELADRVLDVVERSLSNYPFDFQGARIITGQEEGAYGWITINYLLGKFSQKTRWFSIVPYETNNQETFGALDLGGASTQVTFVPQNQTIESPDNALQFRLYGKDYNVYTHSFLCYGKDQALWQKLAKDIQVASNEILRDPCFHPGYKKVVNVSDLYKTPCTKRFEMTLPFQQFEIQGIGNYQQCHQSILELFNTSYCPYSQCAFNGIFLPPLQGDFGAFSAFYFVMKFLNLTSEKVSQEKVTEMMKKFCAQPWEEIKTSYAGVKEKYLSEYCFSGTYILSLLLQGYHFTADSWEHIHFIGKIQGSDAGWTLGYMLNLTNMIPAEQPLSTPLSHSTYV

B1: HuP4_41_sc (antibody, part only; not given: linker and LALA Fc, not shown: a dimerising Fc or GST)
scFv, part: QVQLVESGGGVVQPGGSLRLSCVVSGFTLTNYGVHWVRQAPGKGLEWLAVILRRGSTDYNAAFMSRLAISKDNSKNTVYLELNSLRLDDTAVVAGDYFDYWGQGTTVTVSSGGGGSGGGGSGGGGSGGGGSQVQLVESGGGVVQPGGSLRLSCVVSGFTLTNYGVHWVRQAPGKGLEWLAVILRRGSTDYNAAFMSRLAISKDNSKNTVYLELNSLRLDDTAVVAGDYFDYWGQGTTVTVSS
A Kd [1] of 2.08 nM, a Kd [2] of 1.88 nM and a Kd [3] of 0.106 nM were found for B1 in this work. For the same binder, the koff [3] was 0.000176 s⁻¹ and the kon [3] was 1.66e+06 M⁻¹ s⁻¹.
